Results reported in the supplement of paper PMC6757056.
± gives the standard deviation of the averaged measurements.

B1: library; a variant is named by its letters at N, in order (parent)
chain: GCUGUCACCGAGAAACUGUGAAGUAUAUCUUAAACCUGGGCACUUAAAAGAUAUAUGGAGUUAGUAGUGCAACCUGCUCGGUCUGAUGAGUCCNNNNNNGGACGAAACAGC

What was measured:
cyclic di-GMP [1] = variants of: B1; experiment: normalized RNA/DNA level without ligand (relative to sTRSVctl = 100) (log10 (% of sTRSVctl)); HEK293T; ligand: cyclic di-GMP (c-di-GMP-II aptamer); higher = less ribozyme self-cleavage, higher mRNA level; conditions: reporter: mCherry (pCS4076), ligand present: no
In short: (§1)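 Ribozyme switch library plasmids with mCherry reporters (eGFP in certain ligand experiments) went into HEK293T cells at 4 µg per 6-well well. Where ligand was used, it was applied 1 h before transfection, and total RNA was extracted with EDTA 72 h later for reverse transcription, amplification, barcoding and sequencing. RNA level is the RNA-to-DNA read ratio normalized to a spiked-in non-cleaving sequence or to the leading sequences, then scaled and log-transformed. Scaling was ×100 with log10, the leading set comprised 25 sequences, and the cutoff was ≥100 DNA reads.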

cyclic di-GMP [2] = variants of: B1; experiment: normalized RNA/DNA level with ligand (relative to sTRSVctl = 100) (log10 (% of sTRSVctl)); HEK293T; ligand: cyclic di-GMP (c-di-GMP-II aptamer); ligand concentration (+) RNA-Seq: 1 mM; higher = less ribozyme self-cleavage, higher mRNA level; conditions: reporter: mCherry (pCS4076), ligand present: yes
In short: as §1

| Variant | normalized RNA/DNA level without ligand (log10) (cyclic di-GMP [1]) | normalized RNA/DNA level with ligand (log10) (cyclic di-GMP [2]) |
| --- | --- | --- |
| AUCAAG | 1.57 ± 0.1 | 1.76 ± 0.062 |
| GACAAA | 1.47 ± 0.11 | 1.66 ± 0.077 |
| UCGAGG | 1.772 ± 0.011 | 1.87 ± 0.13 |
| CGGAUG | 1.64 ± 0.057 | 1.77 ± 0.17 |
| GAUUUC | 1.79 ± 0.13 | 1.9 ± 0.12 |
| AACAGG | 1.5 ± 0.036 | 1.66 ± 0.14 |
| UCACUG | 1.632 ± 0.0038 | 1.81 ± 0.16 |
| GCUUGG | 1.59 ± 0.023 | 1.8 ± 0.072 |
| UCUCGC | 1.808 ± 0.017 | 1.88 ± 0.098 |
| CGAUGG | 1.67 ± 0.07 | 1.81 ± 0.073 |
| AAGCGC | 1.669 ± 0.011 | 1.84 ± 0.13 |
| GAAUCU | 1.698 ± 0.0076 | 1.82 ± 0.12 |
| UGCCUG | 1.78 ± 0.047 | 1.88 ± 0.14 |
| UAUACA | 1.711 ± 0.0027 | 1.85 ± 0.12 |
| UCCACC | 1.635 ± 0.0036 | 1.8 ± 0.12 |
| GCUCCA | 1.7142 ± 0.0002 | 1.83 ± 0.1 |
| GGUGGA | 1.55 ± 0.11 | 1.7 ± 0.065 |
| UAGGGC | 1.64 ± 0.035 | 1.78 ± 0.1 |
| GACGCC | 1.75 ± 0.092 | 1.83 ± 0.11 |
| CUAGCC | 1.77 ± 0.022 | 1.83 ± 0.075 |
| UAGAAC | 1.641 ± 0.014 | 1.82 ± 0.13 |
| AAAUGG | 1.5 ± 0.092 | 1.68 ± 0.076 |
| UGAGAA | 1.6654 ± 7.7e-05 | 1.81 ± 0.1 |
| GAAACC | 1.722 ± 0.0059 | 1.85 ± 0.1 |

| Variant | normalized RNA/DNA level without ligand (log10) (cyclic di-GMP [1]) | normalized RNA/DNA level with ligand (log10) (cyclic di-GMP [2]) |
| --- | --- | --- |
| ACAGCC | 1.66 ± 0.027 | 1.84 ± 0.1 |
| CCAUUC | 1.59 ± 0.043 | 1.77 ± 0.12 |
| UGCGUC | 1.75 ± 0.019 | 1.85 ± 0.13 |
| CUGCUC | 1.7 ± 0.0046 | 1.83 ± 0.14 |
| CUUCUC | 1.77 ± 0.049 | 1.86 ± 0.14 |
| UGUCUG | 1.736 ± 0.0044 | 1.88 ± 0.08 |
| CUUGAU | 1.66 ± 0.023 | 1.82 ± 0.13 |
| GCGAAG | 1.45 ± 0.068 | 1.63 ± 0.087 |
| GACAUG | 1.61 ± 0.032 | 1.75 ± 0.12 |
| CUAUUG | 1.626 ± 0.0055 | 1.81 ± 0.1 |
| UGUAGG | 1.72 ± 0.035 | 1.85 ± 0.072 |
| GCGCCU | 1.774 ± 0.0061 | 1.88 ± 0.083 |
| CAAGAU | 1.6 ± 0.048 | 1.79 ± 0.086 |
| GAUCUC | 1.75 ± 0.02 | 1.89 ± 0.15 |
| UUUCGU | 1.72 ± 0.025 | 1.86 ± 0.083 |
| CUAAGA | 1.53 ± 0.068 | 1.72 ± 0.079 |
| UGUGAA | 1.658 ± 0.012 | 1.85 ± 0.078 |
| AUAGGC | 1.55 ± 0.023 | 1.76 ± 0.18 |
| ACUCAA | 1.52 ± 0.029 | 1.71 ± 0.099 |
| CGGCCG | 1.81 ± 0.035 | 1.87 ± 0.11 |
| GGCAAC | 1.72 ± 0.05 | 1.82 ± 0.1 |
| GAGUCG | 1.83 ± 0.031 | 1.88 ± 0.092 |
| CAAGCU | 1.67 ± 0.021 | 1.83 ± 0.071 |
| UAUUGU | 1.67 ± 0.034 | 1.81 ± 0.11 |

| Variant | normalized RNA/DNA level without ligand (log10) (cyclic di-GMP [1]) | normalized RNA/DNA level with ligand (log10) (cyclic di-GMP [2]) |
| --- | --- | --- |
| GAGGCC | 1.7859 ± 0.0011 | 1.89 ± 0.048 |
| GAUGCC | 1.772 ± 0.014 | 1.84 ± 0.1 |
| CCGCUG | 1.28 ± 0.15 | 1.56 ± 0.12 |
| UGUGCA | 1.77 ± 0.02 | 1.87 ± 0.073 |
| UACACG | 1.76 ± 0.029 | 1.86 ± 0.088 |
| GACGAC | 1.608 ± 0.0074 | 1.78 ± 0.13 |
| AGGGCC | 1.84 ± 0.052 | 1.93 ± 0.068 |
| UGGCAA | 1.64 ± 0.028 | 1.8 ± 0.1 |
| UUGGCC | 1.81 ± 0.031 | 1.88 ± 0.097 |
| CUUACG | 1.82 ± 0.085 | 1.87 ± 0.19 |
| GACUCG | 1.78 ± 0.081 | 1.87 ± 0.074 |
| AUCACG | 1.64 ± 0.012 | 1.78 ± 0.13 |
| AGUCUG | 1.629 ± 0.012 | 1.76 ± 0.056 |
| AGCGUU | 1.678 ± 0.0089 | 1.82 ± 0.16 |
| AUCGCU | 1.7 ± 0.023 | 1.81 ± 0.089 |
| AACAUU | 1.7 ± 0.037 | 1.84 ± 0.067 |
| UUGCUU | 1.727 ± 0.0027 | 1.88 ± 0.12 |
| GCGGGG | 1.74 ± 0.035 | 1.83 ± 0.12 |
| UUAGCA | 1.72 ± 0.052 | 1.83 ± 0.12 |
| UCACAC | 1.7 ± 0.0024 | 1.81 ± 0.13 |
| UGUCCG | 1.856 ± 0.0053 | 1.95 ± 0.042 |
| UGCCUA | 1.728 ± 0.0086 | 1.86 ± 0.074 |
| UCGUAA | 1.44 ± 0.1 | 1.64 ± 0.15 |
| GAACUC | 1.725 ± 0.004 | 1.85 ± 0.1 |

| Variant | normalized RNA/DNA level without ligand (log10) (cyclic di-GMP [1]) | normalized RNA/DNA level with ligand (log10) (cyclic di-GMP [2]) |
| --- | --- | --- |
| AGGAGG | 1.6462 ± 0.0014 | 1.74 ± 0.1 |
| CCGAUC | 1.55 ± 0.019 | 1.73 ± 0.094 |
| GGUUCG | 1.7 ± 0.046 | 1.88 ± 0.075 |
| AAUUCA | 1.62 ± 0.078 | 1.8 ± 0.12 |
| CUAAUC | 1.712 ± 0.014 | 1.81 ± 0.087 |
| UCUGAG | 1.66 ± 0.056 | 1.78 ± 0.098 |
| GUCGAG | 1.617 ± 0.0063 | 1.76 ± 0.12 |
| UCCCUA | 1.696 ± 0.014 | 1.84 ± 0.092 |
| CUGAAC | 1.603 ± 0.0055 | 1.77 ± 0.084 |
| CUCUGG | 1.81 ± 0.066 | 1.86 ± 0.14 |
| UCGGCC | 1.85 ± 0.024 | 1.95 ± 0.054 |
| CUUUAC | 1.73 ± 0.019 | 1.84 ± 0.1 |
| UUCCCA | 1.79 ± 0.07 | 1.92 ± 0.12 |
| UACUUG | 1.734 ± 0.0022 | 1.89 ± 0.063 |
| GCAGAU | 1.43 ± 0.093 | 1.6 ± 0.083 |
| UAUUGG | 1.75 ± 0.061 | 1.87 ± 0.076 |
| CGCGGU | 1.67 ± 0.02 | 1.87 ± 0.13 |
| UGCACA | 1.76 ± 0.05 | 1.89 ± 0.12 |
| CGUGCC | 1.75 ± 0.02 | 1.84 ± 0.093 |
| GCAAGU | 1.39 ± 0.16 | 1.64 ± 0.082 |
| UUCUGC | 1.784 ± 0.003 | 1.92 ± 0.08 |
| UCCAAC | 1.62 ± 0.037 | 1.78 ± 0.11 |
| CGUCCA | 1.53 ± 0.11 | 1.72 ± 0.1 |
| UUUAUU | 1.72 ± 0.084 | 1.88 ± 0.15 |

| Variant | normalized RNA/DNA level without ligand (log10) (cyclic di-GMP [1]) | normalized RNA/DNA level with ligand (log10) (cyclic di-GMP [2]) |
| --- | --- | --- |
| AUUCUA | 1.595 ± 0.0027 | 1.78 ± 0.13 |
| UCUGAC | 1.677 ± 0.011 | 1.84 ± 0.12 |
| GGCCAA | 1.638 ± 0.01 | 1.74 ± 0.1 |
| CUUGAG | 1.68 ± 0.017 | 1.79 ± 0.09 |
| UCUGUG | 1.73 ± 0.051 | 1.91 ± 0.092 |
| CAGGGU | 1.673 ± 0.014 | 1.82 ± 0.096 |
| AUAUGG | 1.56 ± 0.033 | 1.75 ± 0.14 |
| AUCACC | 1.77 ± 0.035 | 1.87 ± 0.068 |
| AUACCC | 1.75 ± 0.043 | 1.89 ± 0.086 |
| UAAACU | 1.71 ± 0.061 | 1.85 ± 0.15 |
| AGCGCA | 1.661 ± 0.005 | 1.78 ± 0.12 |
| UUUCAU | 1.72 ± 0.035 | 1.83 ± 0.12 |
| AUGUUU | 1.56 ± 0.034 | 1.77 ± 0.15 |
| UUCCUA | 1.68 ± 0.018 | 1.83 ± 0.11 |
| CUCGAU | 1.72 ± 0.023 | 1.86 ± 0.081 |
| GAAAAC | 1.59 ± 0.016 | 1.74 ± 0.063 |
| CUUAGA | 1.61 ± 0.024 | 1.79 ± 0.12 |
| UGUUAG | 1.74 ± 0.03 | 1.86 ± 0.14 |
| CCUGUG | 1.54 ± 0.12 | 1.76 ± 0.049 |
| UAUACC | 1.76 ± 0.053 | 1.86 ± 0.1 |
